According to IntAct's records for PubMed 21930971:

B1: Complement factor H (Homo sapiens), P08603-1 (parent)
chain: MRLLAKIICLMLWAICVAEDCNELPPRRNTEILTGSWSDQTYPEGTQAIYKCRPGYRSLGNVIMVCRKGEWVALNPLRKCQKRPCGHPGDTPFGTFTLTGGNVFEYGVKAVYTCNEGYQLLGEINYRECDTDGWTNDIPICEVVKCLPVTAPENGKIVSSAMEPDREYHFGQAVRFVCNSGYKIEGDEEMHCSDDGFWSKEKPKCVEISCKSPDVINGSPISQKIIYKENERFQYKCNMGYEYSERGDAVCTESGWRPLPSCEEKSCDNPYIPNGDYSPLRIKHRTGDEITYQCRNGFYPATRGNTAKCTSTGWIPAPRCTLKPCDYPDIKHGGLYHENMRRPYFPVAVGKYYSYYCDEHFETPSGSYWDHIHCTQDGWSPAVPCLRKCYFPYLENGYNQNYGRKFVQGKSIDVACHPGYALPKAQTTVTCMENGWSPTPRCIRVKTCSKSSIDIENGFISESQYTYALKEKAKYQCKLGYVTADGETSGSITCGKDGWSAQPTCIKSCDIPVFMNARTKNDFTWFKLNDTLDYECHDGYESNTGSTTGSIVCGYNGWSDLPICYERECELPKIDVHLVPDRKKDQYKVGEVLKFSCKPGFTIVGPNSVQCYHFGLSPDLPICKEQVQSCGPPPELLNGNVKEKTKEEYGHSEVVEYYCNPRFLMKGPNKIQCVDGEWTTLPVCIVEESTCGDIPELEHGWAQLSSPPYYYGDSVEFNCSESFTMIGHRSITCIHGVWTQLPQCVAIDKLKKCKSSNLIILEEHLKNKKEFDHNSNIRYRCRGKEGWIHTVCINGRWDPEVNCSMAQIQLCPPPPQIPNSHNMTTTLNYRDGEKVSVLCQENYLIQEGEEITCKDGRWQSIPLCVEKIPCSQPPQIEHGTINSSRSSQESYAHGTKLSYTCEGGFRISEENETTCYMGKWSSPPQCEGLPCKSPPEISHGVVAHMSDSYQYGEEVTYKCFEGFGIDGPAIAKCLGEKWSHPPSCIKTDCLSLPSFENAIPMGEKKDVYKAGEQVTYTCATYYKMDGASNVTCINSRWTGRPTCRDTSCVNPPTVQNAYIVSRQMSKYPSGERVRYQCRSPYEMFGDEEVMCLNGNWTEPPQCKDSTGKCGPPPPIDNGDITSFPLSVYAPASSVEYQCQNLYQLEGNKRITCRNGQWSEPPKCLHPCVISREIMENYNIALRWTAKQKLYSRTGESVEFVCKRGYRLSSRSHTLRTTCWDGKLEYPTCAKR
partner: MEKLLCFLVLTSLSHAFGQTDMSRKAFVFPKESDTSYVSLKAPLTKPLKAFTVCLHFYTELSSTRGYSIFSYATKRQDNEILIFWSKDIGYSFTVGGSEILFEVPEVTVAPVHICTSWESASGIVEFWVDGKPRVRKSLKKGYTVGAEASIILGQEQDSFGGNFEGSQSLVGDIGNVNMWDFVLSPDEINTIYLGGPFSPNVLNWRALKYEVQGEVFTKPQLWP
B2: Complement factor H (Homo sapiens), P08603-2 (parent)
chain: MRLLAKIICLMLWAICVAEDCNELPPRRNTEILTGSWSDQTYPEGTQAIYKCRPGYRSLGNVIMVCRKGEWVALNPLRKCQKRPCGHPGDTPFGTFTLTGGNVFEYGVKAVYTCNEGYQLLGEINYRECDTDGWTNDIPICEVVKCLPVTAPENGKIVSSAMEPDREYHFGQAVRFVCNSGYKIEGDEEMHCSDDGFWSKEKPKCVEISCKSPDVINGSPISQKIIYKENERFQYKCNMGYEYSERGDAVCTESGWRPLPSCEEKSCDNPYIPNGDYSPLRIKHRTGDEITYQCRNGFYPATRGNTAKCTSTGWIPAPRCTLKPCDYPDIKHGGLYHENMRRPYFPVAVGKYYSYYCDEHFETPSGSYWDHIHCTQDGWSPAVPCLRKCYFPYLENGYNQNYGRKFVQGKSIDVACHPGYALPKAQTTVTCMENGWSPTPRCIRVSFTL
partner: B1 partner

Variants of: B1
Settings: with crp_human CRP

Question: Which “effect of a mutation on the interaction” value does the source give for Y402H here?
Answer: The value was “decreasing interaction strength”.

Variants of: B2
Settings: with crp_human CRP

Question: How did the “effect of a mutation on the interaction” value turn out when Y402H was run?
Answer: The value was “decreasing interaction strength”.
